From PMC4530445, “PDZ interaction of Vangl2 links PSD-95 and Prickle2 but plays only a limited role in the synaptic localisation of Vangl2” (Scientific Reports, 2015)

Target: T1, GFP-PSD-95 (green fluorescent protein-tagged postsynaptic density-95) (UniProt P31016 1-724)
T1 construct: postsynaptic density-95 (PSD-95); Printed as GFP-PSD-95 in the results and PSD-95-GFP in the methods; also called PSD-95-GFP; source: HEK293T, transfected, in lysate
Assay: co-IP; HEK293T cells cotransfected with HA-Prickle2 and GFP-PSD-95, with or without FLAG-Vangl2 WT or ΔETSV; IP of the lysate with α-GFP Abs, western blot; 1% NP-40, 150 mM NaCl, 50 mM Tris-Cl pH 7.5, 2 mM EDTA, 10% glycerol, on ice or at 4 °C; precipitated Prickle2 (IP/Input) divided by the relative amount of precipitated PSD-95-GFP
Details: partners not purified

T1 sequence (P31016 whole entry): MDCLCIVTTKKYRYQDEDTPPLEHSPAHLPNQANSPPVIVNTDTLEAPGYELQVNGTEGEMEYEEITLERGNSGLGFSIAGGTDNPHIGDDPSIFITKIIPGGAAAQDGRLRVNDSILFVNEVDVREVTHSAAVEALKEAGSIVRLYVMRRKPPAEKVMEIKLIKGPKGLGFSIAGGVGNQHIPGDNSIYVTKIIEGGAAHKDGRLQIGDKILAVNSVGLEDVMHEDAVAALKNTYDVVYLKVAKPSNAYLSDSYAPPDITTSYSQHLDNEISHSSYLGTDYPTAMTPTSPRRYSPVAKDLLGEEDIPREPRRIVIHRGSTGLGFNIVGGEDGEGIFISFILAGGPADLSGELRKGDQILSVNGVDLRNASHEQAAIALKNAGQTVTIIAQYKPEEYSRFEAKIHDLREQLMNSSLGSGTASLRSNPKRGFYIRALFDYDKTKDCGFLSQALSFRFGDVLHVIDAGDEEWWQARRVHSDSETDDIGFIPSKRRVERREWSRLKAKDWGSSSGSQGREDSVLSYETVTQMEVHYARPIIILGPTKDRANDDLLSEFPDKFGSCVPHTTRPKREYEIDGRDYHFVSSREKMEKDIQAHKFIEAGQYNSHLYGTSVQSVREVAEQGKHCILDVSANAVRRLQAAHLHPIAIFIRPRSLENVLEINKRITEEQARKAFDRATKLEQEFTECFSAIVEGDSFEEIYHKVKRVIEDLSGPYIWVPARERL

B1: hemagglutinin (HA)-Prickle2 (natural protein, UniProt Q80Y24 1-845, looked up)
chain: MVTVMPLEMEKTISKLMFDFQRSSTSDDDSGCALEEYAWVPPGLKPEQVHQYYSCLPEEKVPYVNSAGEKLRIKQLLHQLPPHDNEVRYCNSLDEEEKRELKLFSNQRKRENLGRGNVRPFPVTMTGAICEQCGGQIKGGDIAVFASRAGHGICWHPPCFVCTVCNELLVDLIYFYQDGKIYCGRHHAECLKPRCAACDEIIFADECTEAEGRHWHMRHFCCFECETVLGGQRYIMKEGRPYCCHCFESLYAEYCDTCAQHIGIDQGQMTYDGQHWHATETCFCCAHCKKSLLGRPFLPKQGQIFCSRACSAGEDPNGSDSSDSAFQNARAKESRRSAKIGKNKGKTEEAMLNQHSQLQVSSNRLSADVDPLSVQMDLLSLSSQTPSLNRDPIWRSREEPFHYGNKMEQNQSQSPLQLLSQCNIRTSYSPGGQGAGAQPDMWAKHFSNPKRSSSMALKGHGGSFIQECREDYYPGRLMSQESYSDMSSQSFNETRGSIPVPKYEEEEEEEEGGISTQQCRPRRPLSSLKYTEDMTPTEQTPRGSMESLALSNATGLSAEGGAKRQEHLSRFSMPDLSKDSGMNVSEKLSNMGTLNSSMQFRSAESVRSLLSAQQYQEMEGNLHQLSNPLGYRDLQSHGRMHQSFDFDGGIASSKLPGQEGVHIQPMSERTRRRTTSRDDNRRFRPHRSRRSRRSRSDNALHLASEREVIARLKERPPLRAREDYDQFMRQRSFQESLGQGSRRDLYSQCPRTVSDLALQNAFGERWGPYFTEYDWCSTCSSSSESDNEGYFLGEPIPQPARLRYVTSDELLHKYSSYGVPKSSTLGGRGQLHSRKRQKSKNCIIS
notes: Prickle2; source: HEK293T, transfected, in lysate
With B1 the “fold increase of the precipitated amount of Prickle2 with FLAG-Vangl2 co-expressed, against without Vangl2” value was 63.6 fold.
